From US20120270234A1, “DDR2 PROTEIN WITH ACTIVATED KINASE ACTIVITY AND PREPARATION METHOD THEREOF” (KOREA INSTITUTE OF SCIENCE AND TECHNOLOGY, priority 2003, published 2012)
“Also recorded” adds a separate entry of the source.

Tests used:
[1] = biological target: T1, c-Fyn tyrosine kinase (Homo sapiens, UniProt P06241); experiment: tyrosine phosphorylation on co-expression with c-Fyn in insect cells, western blotting with phosphorylated tyrosine specific antibody; format: cell-based; details: FIG. 2
T1 construct: Full length human c-Fyn gene was per amplified from the vector containing full length human c-Fyn purchased from Invitrogen, USA; host or cells: sf9 insect cells co-infected with two recombinant baculoviruses
T1 sequence (P06241 2-482 isoform P06241-3): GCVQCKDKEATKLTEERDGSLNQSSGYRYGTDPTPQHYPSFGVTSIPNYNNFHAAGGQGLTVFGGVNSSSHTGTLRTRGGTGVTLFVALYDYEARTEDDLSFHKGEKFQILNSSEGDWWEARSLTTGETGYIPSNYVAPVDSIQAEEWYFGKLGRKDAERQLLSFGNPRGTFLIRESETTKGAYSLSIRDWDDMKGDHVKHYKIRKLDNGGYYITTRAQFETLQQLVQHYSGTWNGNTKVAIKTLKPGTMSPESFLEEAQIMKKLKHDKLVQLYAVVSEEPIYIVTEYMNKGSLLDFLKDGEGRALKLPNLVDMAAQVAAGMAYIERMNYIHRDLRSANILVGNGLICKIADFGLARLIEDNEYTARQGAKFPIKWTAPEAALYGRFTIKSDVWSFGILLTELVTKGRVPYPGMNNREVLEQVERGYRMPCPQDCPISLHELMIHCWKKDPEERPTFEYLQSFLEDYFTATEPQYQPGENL
Text: In order to check the expression of c-Src protein in the case of co-expressing the GST-DDR2 CKD and the c-Src (lane 2), a portion of lysate of the host cells is undergone a SDS-PAGE and then a western blotting using a c-Src protein specific antibody. Likewise in order to check the expression of c-Fyn protein in the case of co-expressing the GST-DDR2 CKD and the c-Fyn (lane 3), a portion of lysate of the host cells is undergone a SDS-PAGE and then a western blotting using a c-Fyn protein specific antibody.
The presence of equal amount of protein at each lane was estimated by coomassie brilliant blue (CBB) staining. The co-expression of c-Src or c-Fyn protein was confirmed by western blotting on aliquot of total cell lysate using human c-Src or c-Fyn specific antibody.
(§1) Phospho-tyrosine specific antibody was purchased from Cell Signaling Inc, USA. Specific antibodies to human c-Src, human c-Fyn, and she were obtained from SantaCruz, USA. Samples were boiled for 2 min in 1× lameli sample buffer, and loaded in 10% SDS-PAGE. Proteins were transferred to Immobilon-P membrane (Millipore) and blacked by 10% skim milk in TBS for an hour. The membrane was immunoblotted with antibodies for 2 hours and subsequently washed with 1×TBS five times. Then it was incubated with HRP conjugated secondary antibodies for an hour and protein bands were detected using chemiluminescence kit (Amersham).

[2] = biological target: T2, c-Src tyrosine kinase (Mus musculus, UniProt P05480, P80A); experiment: tyrosine phosphorylation on co-expression with c-Src in insect cells, western blotting with phosphorylated tyrosine specific antibody; format: cell-based, Spodoptera frugiperda; details: glutathione bead purified, FIG. 2, FIG. 4
T2 construct: Full length human c-Src gene was per amplified from the vector of pUSE human O-Src wild (Upstate Biotechnology); host or cells: sf9 insect cells co-infected with two recombinant baculoviruses
Text: The results shown in FIG. 4 were obtained by co-expressing a fused protein GST-DDR2 CKD, a fused protein (GST-DDR1b CKD) of the GST and the human DDR1b cytosolic tyrosine kinase domain, a fused protein (GST-Akt1) of the GST and the full-length mouse Akt1 kinase and a fused protein (GST-CDK4) of the GST and the full-length human CDK4 kinase with the c-Src protein without GST tagging in insect cells, respectively; purifying the respective expressed product using glutathione beads; performing SDS-PAGE; and performing the western blotting test using a phosphorylated tyrosine specific antibody and coomassie staining.
The results shown in FIG. 4 have been obtained by co-expressing the full-length c-Src protein together with the fused proteins, GST-DDR2 CKD, GST-DDR1b CKD, GST-Akt1 and GST-CDK4, respectively; in sf9 cells, then performing a western blotting test on each purified GST tagged protein using a phosphorylated tyrosine specific antibody. The presence of a similar amount of each purified GST tagged protein was shown by CBB staining.
GST tagged kinase defective DDR2 cytosolic domain (GST-kd-DDR2-CKD) with intact three tyrosines in the activation loop or with various phenylalanine mutations described in the text were co-expressed with Src in sf9 cells. GST tagged proteins were purified and the same amount of proteins estimated by CBB staining was used for western blotting using P-tyro antibody.
as §1

[3] = system: shc protein; experiment: in vitro shc binding assay using HSC T6 cell lysate; parameters: species or system human
Text: One of the characteristic features of tyrosine phosphorylated cytosolic domain of receptor tyrosine kinase is to recruit the signaling proteins such as shc protein. This complex formation between the cytosolic domain of receptor tyrosine kinase protein and signaling proteins such as shc is important for the cellular transmission of the activated receptor tyrosine kinase signal. It has been observed in HSC T6 liver stellate cells and fibroblast cells that shc, one of signaling protein containing PTB domain binds to activated DDR2 cytosolic domain. The present inventors examined whether the invented DDR2 cytosolic tyrosine kinase domain protein with induced tyrosine phosphorylation for example, by the method of co-expression with c-Src in sf 9 cells or with the mutation of tyrosine 740 to phenylalanine 740 can be used for in vitro shc binding assay. In FIG. 15, the purified GST-DDR2 cytosolic domain from sf 9 cells with and without Src coinfection were used for in vitro shc binding assay. Each protein was subject to autophosphorylation reaction at 30° C. for 15 min, and a mock-autophosphylation reaction as well where gamma-S-ATP was used instead of ATP in the reaction buffer before they were used for in vitro shc binding assay using HSC T6 cell lysate.
The purified GST-DDR2 CKD proteins without or with tyrosine phosphorylation by Src were subject to in vitro shc binding assay after autophosphorylation reaction or a mock-autophosphorylation reaction as described in materials and methods. The bound proteins on the glutathione bead were eluted by boiling in 1× lameli buffer. The presence of shc in the eluate was measured by western blotting using shc antibody and the accumulation of tyrosine phosphorylation at GST-DDR2 CKD proteins resulted from autophosphorylation was shown by western blotting using P-tyro antibody. The presence of an equal amount of GST-DDR2 CKD proteins in each eluate was confirmed by CBB staining. ‘Bead only’ means that no GST-DDR2 CKD protein was applied on glutathione bead as a control.
The same type of experiment was done as FIG. 15 using purified GST-DDR2 CKD phosphorylated by src and its mutant proteins of Y740F and Y736/740/741F.
As a source of shc protein, total lysate of HSC T6 cells was used. For the preparation of the lysate, 2×10^7 HSC T6 cells were harvested and lysed by sonication in 5 ml of lysis buffer consisting of 20 mM Tris-HCl (pH8.0), 0.1M NaCl, 5 mM DTT, 10 mM NaF, […], 0.02% IGE-PAL (Sigma) and a proteinase inhibitor cocktail pellet (Roche). The supernatant was obtained by centrifugation in 15,000 rpm for 10 min at 4° C. and used for the following shc binding assay. Various GST-DDR2 KD proteins bound to glutathione bead were obtained as described above. […]

[4] = system: sf9 cells; experiment: tyrosine phosphorylation by H2O2 processing of expressing insect cells, western blotting with phosphorylated tyrosine specific antibody; format: cell-based, Spodoptera frugoperda; details: 200 μM H2O2 for half of an hour; FIG. 2, FIG. 5
Method: The results shown in FIG. 5 were obtained by solely expressing the fused proteins, GST-DDR2 CKD, the GST-DDR1b CKD, the GST-CDK4 and the GST-CDK1, respectively, in insect cells; processing with 200 μM of H2O2 for half of an hour; purifying the respective expressed product using glutathione beads; performing the SDS-PAGE; and performing the western blotting test using an phosphorylated tyrosine specific antibody and coomassie staining.
The results shown in FIG. 5 have been obtained by solely expressing GST-DDR2 CKD, GST-DDR1b CKD, GST-CDK4 and GST-CDK1, respectively in sf9 cells; processing each expressed cells with H2O2 of 200 uM for half of an hour or not; and then purifying the GST tagged protein followed by a western blotting using a phosphorylated tyrosine specific antibody. The presence of a similar amount of each purified GST tagged protein was shown by CBB staining.
The recombinant baculoviruses having the GST-DDR2 CKD coding gene were transfected into sf9 insect cells, by setting MOU to 10 and the cells were cultured for 24 to 72 hours, to express the protein. […], at the concentration of 200 μM was added to the cultured cells. The cells were left for half of an hour, and collected. The collected cells were lysed and the GST-DDR2 CKD was purified from the expressed products, using the glutathione agarose bead column chromatography. The purified protein was subjected to an electrophoresis in 10% polyacrylamaid gel.
After completing the electrophoresis, the protein developed in the gel was transferred to nitrocellulose, and then subjected to a western blotting using a phosphorylated tyrosine specific antibody (Cell signaling Inc, USA), to measure the chemiluminescence signal using x-ray film. For the control, the chemical luminescence of the case without H2O2 processing was measured by the method as mentioned above.

- tyrosine phosphorylation induced by co-expression with c-Fyn [1]: remarkably induced
B1: GST-DDR2 CKD: fusion protein of glutathione S transferase and human DDR2 cytosolic tyrosine kinase domain, solely expressed in insect cells (protein)
chain: MTVSLSLPSDSSMFNNNRSSSPSEQGSNSTYDRIFPLRPDYQEPSRLIRKLPEFAPGEEESGCSGVVKPVQPSGPEGVPHYAEADIVNLQGVTGGNTYSVPAVTMDLLSGKDVAVEEFPRKLLTFKEKLGEGQFGEVHLCEVEGMEKFKDKDFALDVSANQPVLVAVKMLRADANKNARNDFLKEIKIMSRLKDPNIIHLLSVCITDDPLCMITEYMENGDLNQFLSRHEPPNSSSSDVRTVSYTNLKFMATQIASGMKYLSSLNFVHRDLATRNCLVGKNYTIKIADFGMSRNLYSGDYYRIQGRAVLPIRWMSWESILLGKFTTASDVWAFGVTLWETFTFCQEQPYSQLSDEQVIENTGEFFRDQGRQTYLPQPAICPDSVYKLMLSCWRRDTKNRPSFQEIHLLLLQQGDE
modifications: left off: a dimerising Fc or GST
notes: fusion protein of glutathione S transferase and human DDR2 cytosolic tyrosine kinase domain, solely expressed in insect cells
- tyrosine phosphorylation induced by co-expression with c-Src [2]: remarkably induced; also recorded: strongly induced
- shc binding after in vitro autophosphorylation reaction ([3]; autophosphorylation at 30° C. for 15 min, FIG. 15, FIG. 16): failure to show an improved shc binding
- shc binding before in vitro autophosphorylation ([3]; mock-autophosphorylation with gamma-S-ATP, FIG. 15): did not attract shc protein binding significantly
- tyrosine phosphorylation induced by H2O2 processing [4]: remarkably induced; also recorded: strongly induced
